In article PMC4980298 (Molecular microbiology, 2016):

Molecular target: T1, FimL fused to T18 or T25 (BACTH) (P. aeruginosa PAO1, UniProt Q9I2S3 1-562)
T1 sequence: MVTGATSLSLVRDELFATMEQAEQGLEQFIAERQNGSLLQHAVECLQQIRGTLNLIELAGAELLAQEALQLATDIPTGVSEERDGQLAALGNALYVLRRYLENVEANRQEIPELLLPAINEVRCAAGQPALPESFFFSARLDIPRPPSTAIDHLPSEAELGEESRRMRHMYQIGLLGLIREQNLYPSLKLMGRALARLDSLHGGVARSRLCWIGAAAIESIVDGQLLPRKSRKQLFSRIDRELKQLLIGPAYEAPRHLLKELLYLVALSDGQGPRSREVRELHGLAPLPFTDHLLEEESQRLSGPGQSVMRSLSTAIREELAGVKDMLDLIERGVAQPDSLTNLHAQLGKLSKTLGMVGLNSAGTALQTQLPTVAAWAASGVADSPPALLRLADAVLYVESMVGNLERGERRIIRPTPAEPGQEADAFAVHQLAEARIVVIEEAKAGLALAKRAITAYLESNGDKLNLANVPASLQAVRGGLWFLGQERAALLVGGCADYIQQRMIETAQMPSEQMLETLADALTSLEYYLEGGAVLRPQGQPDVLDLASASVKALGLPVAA
Experiment: two-hybrid

B1: PilG fused to T18 or T25 (BACTH) (natural protein)
chain: MEQQSDGLKVMVIDDSKTIRRTAETLLKKVGCDVITAIDGFDALAKIADTHPNIIFVDIMMPRLDGYQTCALIKNNSAFKSTPVIMLSSKDGLFDKAKGRIVGSDQYLTKPFSKEELLGAIKAHVPSFTPVDAVS
- fold increase in β-galactosidase activity over controls: ~20 fold
